In test [1] the target is T1, recombinant purified CD123-Fc fusion protein (Bio-Techne/R&D Systems) (human, UniProt P26951 19-305).
T1 construct: Bought; also called Fc-fusion of the CD123 antigen; recombinant CD123
T1 sequence: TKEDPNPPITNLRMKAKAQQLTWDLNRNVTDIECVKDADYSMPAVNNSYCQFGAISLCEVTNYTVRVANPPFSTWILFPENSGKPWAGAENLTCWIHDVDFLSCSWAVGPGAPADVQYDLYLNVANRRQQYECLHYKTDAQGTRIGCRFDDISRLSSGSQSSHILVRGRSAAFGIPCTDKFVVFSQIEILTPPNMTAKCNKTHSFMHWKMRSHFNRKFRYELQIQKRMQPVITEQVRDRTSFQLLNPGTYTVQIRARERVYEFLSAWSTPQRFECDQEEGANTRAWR
In words: BLI, CD123-Fc on anti-human IgG Fc capture sensors; *low binding (>20 nM), one measurement only. The method, then:
(§1) To determine the kinetics of binding of humanized 1D2-5C8var1 variants to CD123, recombinant purified CD123-Fc fusion protein (Bio-Techne/R&D Systems) was loaded to a density of 1 nm onto anti-human IgG Fc Capture sensors (using a concentration of 5 μg/ml) for an Octet Red96e (Sartorius) instrument. Different sensors were then dipped in different concentrations of humanized 1D2-5C8var1 variants, starting at 50 nM and two-fold dilutions thereof; dilutions were made in 10× kinetic buffer (10×KB) provided by the supplier. From the obtained sensorgrams, the kinetic association- and dissociation rate constants were determined by curve fitting. The association- and dissociation rate constants, when fitting was possible, were used to calculate the affinity of the humanized 1D2-5C8var1 variants for binding to CD123. […] For reference, the non-humanized (parental) 1D2 was included in these experiments.
A general note: In BLI a coated tip is dipped into the sample, and binding shifts an interference pattern.

For test [2], the target named is T1, recombinant purified CD123-Fc fusion …. The test can be described thus: BLI, CD123-Fc on anti-human IgG Fc capture sensors; SD 7.5. The method, then: as §1
Test [3] concerns the target T2, Recombinant, purified CD123 antigen (extra-cellular domain; Sino Biological) (human, UniProt P26951 19-305).
T2 construct: Bought; also called recombinant human CD123
T2 sequence: T1 sequence
The test can be described thus: phage ELISA on recombinant captured CD123 antigen. A general note: ELISA stands for enzyme-linked immunosorbent assay.

The target of test [4] is T3, human CD123 expressed on cells (human, UniProt P26951 19-378).
T3 construct: also called interleukin-3 receptor alpha chain
The test can be described thus: flow cytometry on CD123 expressing C1R-CD1d cells (cell line used for immunization).

The target in test [5] is T3, human CD123 expressed on cells. In words: cell-based or functional assay.
The target of another test is T4, BSA (bovine, UniProt P02769).
T4 construct: also called bovine serum albumin, negative control coating
T4 sequence (P02769 25-607 limits assumed): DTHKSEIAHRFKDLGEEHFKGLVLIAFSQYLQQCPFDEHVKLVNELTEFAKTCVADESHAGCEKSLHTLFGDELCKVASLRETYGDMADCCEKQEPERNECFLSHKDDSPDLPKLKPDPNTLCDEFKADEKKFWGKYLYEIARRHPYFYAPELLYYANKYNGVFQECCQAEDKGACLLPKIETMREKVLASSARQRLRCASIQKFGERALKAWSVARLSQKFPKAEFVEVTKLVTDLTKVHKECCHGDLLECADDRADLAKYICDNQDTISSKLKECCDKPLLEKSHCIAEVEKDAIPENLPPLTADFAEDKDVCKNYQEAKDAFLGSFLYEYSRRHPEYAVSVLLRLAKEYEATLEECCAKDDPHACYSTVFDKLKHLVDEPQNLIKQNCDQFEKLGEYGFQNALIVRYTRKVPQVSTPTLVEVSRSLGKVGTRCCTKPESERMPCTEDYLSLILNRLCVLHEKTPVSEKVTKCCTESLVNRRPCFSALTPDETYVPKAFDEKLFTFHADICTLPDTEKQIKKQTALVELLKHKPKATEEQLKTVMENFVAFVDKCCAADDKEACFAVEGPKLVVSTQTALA
In words: ELISA, wells coated with 1% BSA (panel BSA), HRP anti-VHH detection. From the text: FIG. 1: ELISA showing binding of all different bispecific VHHs to CD123, the Vγ9Vδ2 (GDT) TCR and BSA (as negative control). OD values are depicted; values are the mean of duplicate measurements; error bars indicate standard errors of the mean. A mono-valent anti-Vδ2 VHH was used as control for the TCR staining (“TCR control”) and a commercially available anti-CD123 antibody (“anti-CD123”) was used as control for the CD123 antigen coatings. “No AB” indicates a negative control without primary antibody.
Recombinant, purified CD123 antigen (extra-cellular domain; Sino Biological), or an Fc-fusion of the CD123 antigen (Bio-Techne/R&D Systems) was coated to the wells of an ELISA plate (Greiner) in PBS at a concentration of 2 μg/ml. As a negative control, wells were coated with 1% (w/v) BSA. An in-house designed, produced and purified recombinant form of the extra-cellular domains of the human Vγ9 and Vδ2 TCR chains fused to a human Fc was also coated as antigen at 2 μg/ml. After coating and blocking of the wells with 2% (w/v) BSA, bispecific VHH proteins were tested for binding at a saturating concentration of 50 nM and bound VHH was detected using an HRP-labeled anti-VHH antibody (Genscript) and staining using 3,3′,5,5′-tetramethylbenzidine (TMB)/H2O2.

Test [6] addresses T5, human CD131 (common β chain of the IL3 receptor) expressed on 293F cells (human, UniProt P32927 17-897).
T5 sequence: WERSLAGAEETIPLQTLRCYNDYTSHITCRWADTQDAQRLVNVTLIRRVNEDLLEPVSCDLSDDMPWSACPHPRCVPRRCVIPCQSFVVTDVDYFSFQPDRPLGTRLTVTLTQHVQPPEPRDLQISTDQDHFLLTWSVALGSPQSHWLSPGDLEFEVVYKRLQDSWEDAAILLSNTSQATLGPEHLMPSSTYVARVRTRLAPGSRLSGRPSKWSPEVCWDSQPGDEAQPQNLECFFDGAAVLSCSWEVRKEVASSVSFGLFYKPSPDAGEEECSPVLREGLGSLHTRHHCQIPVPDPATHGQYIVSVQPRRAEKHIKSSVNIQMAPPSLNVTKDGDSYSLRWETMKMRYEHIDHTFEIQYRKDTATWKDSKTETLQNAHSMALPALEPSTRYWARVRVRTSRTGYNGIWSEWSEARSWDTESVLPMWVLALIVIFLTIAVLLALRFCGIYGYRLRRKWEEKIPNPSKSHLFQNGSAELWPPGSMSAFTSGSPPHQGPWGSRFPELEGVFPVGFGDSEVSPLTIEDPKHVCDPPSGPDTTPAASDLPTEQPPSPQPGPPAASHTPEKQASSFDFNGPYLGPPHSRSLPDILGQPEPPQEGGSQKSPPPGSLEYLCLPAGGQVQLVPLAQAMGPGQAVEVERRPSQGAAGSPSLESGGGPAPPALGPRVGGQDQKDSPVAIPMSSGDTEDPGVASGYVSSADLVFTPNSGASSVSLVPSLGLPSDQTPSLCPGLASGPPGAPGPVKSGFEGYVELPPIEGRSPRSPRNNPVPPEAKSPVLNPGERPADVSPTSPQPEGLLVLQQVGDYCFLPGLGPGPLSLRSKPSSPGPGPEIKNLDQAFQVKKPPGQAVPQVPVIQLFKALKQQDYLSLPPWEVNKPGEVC
In words: flow cytometry on 293F cells transiently expressing CD131, AF647-labeled anti-VHH detection. The protocol: Expression constructs for human CD123 and for the common β chain of the receptor (CD131) were purchased from Invivogen. Plasmids were transformed to chemically competent DH5α bacteria and a single colony growing on selective medium was used to inoculate a 50 ml culture to amplify both constructs. […] Either plasmid alone, or a mix of the two plasmids was used for transfection. As negative control, untransfected cells were also used for flow cytometry. A day after transfection, cells were used to test the binding of the bispecific VHH using staining in FACS. Briefly, binding of a saturating concentration of 100 nM bispecific VHH to transfected cells was detected with an AF647-labeled anti-VHH (Genscript) antibody and staining was visualized using a FACS Celesta (Becton and Dickinson).
(In general: In flow cytometry, cells or beads pass a laser one at a time.)

The values that follow come from patent US20240141071A1 (LAVA THERAPEUTICS N V, published 2024).

Substitutions are numbered along the chain they refer to. Numbers in names are those of the source.

Broadly, the Kd is a measure of binding affinity in units of concentration.

B1: humanized 1D2-5C8var1 variant with 1D2 var2 (SEQ ID NO:26) (bispecific antibody)
chain: EVQLVESGGGLVQPGGSLRLSCAASGRTASSYVMGWVRQAPGKEREWVSVINWNGDSTYYADSVKGRFTISRDNSKNTLYLQMNSLRAEDTAVYYCAADTRREWYRDGYWGPPARYEYDYRGQGTLVTVSSGGGGSEVQLLESGGGSVQPGGSLRLSCAASGRPFSNYAMSWFRQAPGKEREFVSAISWSGGSTSYADSVKGRFTISRDNSKNTLYLQMNSLRAEDTAVYYCAAQFSGADYGFGRLGIRGYEYDYWGQGTQVTVSSAAAEPEA
notes: See note of m19
Take B1: the Kd in test [1] is 24.5 nM.

B2: humanized 1D2-5C8var1 variant with 1D2 var10 (SEQ ID NO:34) (bispecific antibody)
chain: B1 chain with V37F, W47F, Y109F, L126Q
notes: See note of m19
For B2, the Kd in test [2] worked out at 10.4 nM.

B3: humanized 1D2-5C8var1 variant with 1D2 var6 (SEQ ID NO:30) (bispecific antibody)
chain: B1 chain with E44G, R45L
notes: See note of m19
On to B3, for which the Kd in test [1] was found to be 29.1 nM.

B4: humanized 1D2-5C8var1 variant with 1D2 var4 (SEQ ID NO:28) (bispecific antibody)
chain: B1 chain with L11V, G35S, V37F, S49A, L126T
notes: See note of m19
With B4, in test [2], the Kd was determined as 20 nM.

B5: humanized 1D2-5C8var1 variant with 1D2 var8 (SEQ ID NO:32) (bispecific antibody)
chain: B1 chain with G35S, V37F, E44G, R45L, S49A, L79V
notes: See note of m19
As for B5, the Kd in test [1] stood at 44.1 nM.

B6: anti-CD123 VHH 1A3 (VHH)
VHH: EVQLVESGGGLVQAGGSLRLSCAASGRAINTYAMAWFRQAPGKERDFVATISYSGGTTDYAGSVKGRFTISRDNAENTVYLQMNSLKPEDTAVYYCAARDRYNPLARNYNYWGQGTQVTVSS
Take B6: the binding result in test [3] and in test [4] was “binds” throughout.

B7: 1A3-5C8var1 bispecific VHH (bispecific antibody)
chain: EVQLVESGGGLVQAGGSLRLSCAASGRAINTYAMAWFRQAPGKERDFVATISYSGGTTDYAGSVKGRFTISRDNAENTVYLQMNSLKPEDTAVYYCAARDRYNPLARNYNYWGQGTQVTVSSGGGGSEVQLLESGGGSVQPGGSLRLSCAASGRPFSNYAMSWFRQAPGKEREFVSAISWSGGSTSYADSVKGRFTISRDNSKNTLYLQMNSLRAEDTAVYYCAAQFSGADYGFGRLGIRGYEYDYWGQGTQVTVSSAAAEPEA
notes: Same format as 1D2-5C8var1
On to B7, for which, in test [5], the “EC50 of THP-1 target cell lysis by Vγ9Vδ2 T cells” value is about 0.05 nM. In addition, the figures for the binding result (in the test with BSA; in test [6]) were “no binding (tested: 50 nM (single concentration))” and “no binding (tested: 100 nM (single concentration))”, respectively.

B8: 1D2-5C8var1(Y105F)-Fc (bispecific antibody, human IgG1, V domains shown)
V domain 1: EVQLVESGGGLVQAGGSLRLSCAASGRTASSYVMGWFRQAPGKEREFVAVINWNGDSTYYTDSVKGRFAISRDNAKNTVYLQMNSLKPEDTAVYYCAADTRREWYRDGYWGPPARYEYDYRGQGTQVTVSS
V domain 2: EVQLLESGGGSVQPGGSLRLSCAASGRPFSNYAMSWFRQAPGKEREFVSAISWSGGSTSYADSVKGRFTISRDNSKNTLYLQMNSLRAEDTAVYYCAAQFSGADFGFGRLGIRGYEYDYWGQGTQVTVSS
Consider B8, for which, in test [5], the “EC50 of THP-1 lysis, donor nr. 2” value turned out to be 0.001 nM; the “EC50 of THP-1 target cell lysis by Vγ9Vδ2 T cells, 24 h” value fell in the range of 0.001 to 0.003 nM; the “EC50 of THP-1 target cell lysis in THP-1/pDC/Vγ9Vδ2 T cell co-culture” value is about 1 pM; the “EC50 of pDC lysis relative to THP-1 cell lysis” value is about 10 fold. The “EC50 of pDC lysis, donor nr. 2” value in test [5] stood at 11 pM.

B9: anti-CD123 VHH 1D2 (VHH)
VHH: B8 V domain 1
notes: also called 1D2 VHH; lead anti-CD123 antibody
As for B9, the binding result in test [3] and in test [4] was “binds” each time.
